Results: the Human Domainome abundance scans (Beltran et al. 2025)

B1: CD2-associated protein, residues 271 to 331; numbered along this chain, Q9Y5K6 (parent)
chain: KEYCRTLFAYEGTNEDELTFKEGEIIHLISKETGEAGWWRGELNGKEGVFPDNFAVQINEL

Variants of: B1
Assay: abundance fitness (aPCA) (normalised: wild type 0, dead -1); higher = more abundant; growth selection in yeast, the domain comes from the species named
Details: Homo sapiens

Abundance fitness: each site, then its substitutions
G34: L -0.477 | N -0.426 | I -0.66 | W -0.712 | R -0.26 | Y -0.628 | K 0.048 | D -0.031 | M -0.423 | E -0.155 | S -0.014 | V -0.368 | T -0.086 | A -0.216 | F -0.491 | P -0.181 | C -0.064
K46: N -0.286 | H 0.083 | V -0.033 | M -0.235 | Q -0.265 | I -0.309 | C -0.056 | E -0.348 | P -1.05 | G -0.924 | D -0.39 | T -0.273 | L -0.223 | S -0.338 | Y -0.34 | A -0.134 | R 0.012
R40: W -0.377 | Y -0.195 | N -0.706 | Q -0.3 | D -0.546 | C -0.332 | S -0.609 | F -0.16 | L -0.009 | H -0.296 | I -0.547 | A -0.426 | E -0.604 | V -0.513 | K 0.014
A36: F -0.158 | E -0.13 | H -0.199 | K -0.008 | P 0.114 | R -0.054 | M -0.18 | L -0.305 | Q 0.036 | T -0.044 | G -0.235 | D -0.082 | I -0.193 | Y -0.334 | C -0.147 | W -0.22 | V -0.03
E35: Y 0.055 | Q 0.036 | I 0.119 | M -0.028 | V 0.032 | C -0.027 | T 0.132 | P -0.252 | S 0.034 | L -0.035 | R 0.034 | K 0.069 | D 0.02 | H -0.078 | G -0.125 | W -0.358 | A 0.055 | N 0.002
K31: P -0.703 | W -0.862 | F -0.848 | V -0.313 | E -0.111 | Y -0.634 | R 0.017 | D -0.717 | A -0.635 | G -0.522 | Q -0.52 | L -0.476 | T -0.024 | S -0.571 | C -0.562 | I -0.672 | M -0.013 | N -0.575
I29: V -0.047 | Q -0.494 | H -0.56 | M -0.185 | S -0.463 | L -0.006 | T -0.215 | G -0.713 | C -0.561 | Y -0.755 | F -0.628 | A -0.672 | D -0.668 | W -1.05 | N -0.433 | K -0.26 | P -0.524 | E -0.705
W38: C -0.345 | A -0.502 | M -0.17 | N -0.787 | F -0.145 | T -0.404 | I -0.361 | D -0.825 | P -0.729 | V -0.249 | S -0.675 | E -0.781 | Q -0.3 | R -0.216 | K -0.034 | G -0.559 | H -0.349 | Y -0.043
E42: F -0.569 | K -0.011 | H -0.419 | Y -0.567 | D -0.298 | C -0.201 | S -0.05 | T -0.185 | R -0.099 | N -0.078 | I -0.026 | W -0.313 | Q -0.12 | A 0.006 | M -0.02 | P -0.981 | L -0.218 | V -0.159
N44: I -0.787 | L -0.287 | Q -0.507 | Y -0.363 | D -0.113 | G -0.029 | V -0.791 | M -0.172 | H -0.03 | A -0.152 | E -0.043
